Values quoted from earlier work, collected in paper PMC11736853.
pKd, pKi: −log10 of the molar value. Read-outs that look alike come from different tables or passages of the source. Each block holds one substance with its values, some of them ahead of it.

Key:
[1] = molecular target: CK2β triazole cyclised peptide (Homo sapiens) (UniProt P67870); assay: ITC
[2] = molecular target: RAP1 (Homo sapiens) (UniProt Q9NYB0)
[3] = molecular target: iNOS peptide 24 (Homo sapiens) (UniProt P35228); assay: ITC
[4] = molecular target: BCL9 peptide 54 351-375 (Homo sapiens) (UniProt O00512); assay: competitive FP
BCL9 peptide 54 351-375 (Homo sapiens), sequence (O00512 351-375): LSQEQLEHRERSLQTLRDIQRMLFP

[5] = molecular target: BCL9 peptide 53 347-381 (Homo sapiens) (UniProt O00512); assay: competitive FP
BCL9 peptide 53 347-381 (Homo sapiens), sequence (O00512 347-381): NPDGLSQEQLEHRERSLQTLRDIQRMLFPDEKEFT

[6] = molecular target: BCL9 peptide 53 347-381 (Homo sapiens) (UniProt O00512); assay: FP
[7] = molecular target: Nrf2 peptide 41 (Homo sapiens) (UniProt Q16236)
Nrf2 peptide 41 (Homo sapiens), sequence (Q16236 whole entry, looked up, tested part not stated): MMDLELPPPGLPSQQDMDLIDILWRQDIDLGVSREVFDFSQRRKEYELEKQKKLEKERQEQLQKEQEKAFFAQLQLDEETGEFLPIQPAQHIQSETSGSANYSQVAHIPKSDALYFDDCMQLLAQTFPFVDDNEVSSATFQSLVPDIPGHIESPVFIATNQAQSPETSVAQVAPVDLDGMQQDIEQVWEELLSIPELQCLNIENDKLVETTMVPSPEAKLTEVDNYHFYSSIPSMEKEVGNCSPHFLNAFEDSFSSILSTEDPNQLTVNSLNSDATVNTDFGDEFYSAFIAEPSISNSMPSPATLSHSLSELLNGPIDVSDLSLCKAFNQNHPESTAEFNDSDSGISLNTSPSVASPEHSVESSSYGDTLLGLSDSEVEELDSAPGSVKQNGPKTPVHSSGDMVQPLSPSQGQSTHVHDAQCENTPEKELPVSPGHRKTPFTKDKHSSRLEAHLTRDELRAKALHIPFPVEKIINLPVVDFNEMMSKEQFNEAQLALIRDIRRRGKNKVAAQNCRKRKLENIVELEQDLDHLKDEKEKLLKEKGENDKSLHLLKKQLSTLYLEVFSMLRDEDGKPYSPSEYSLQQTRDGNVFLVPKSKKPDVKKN

[8] = molecular target: AIF peptide 40 (Homo sapiens) (UniProt O95831); assay: SPR
AIF peptide 40 (Homo sapiens), sequence (O95831 whole entry, looked up, tested part not stated): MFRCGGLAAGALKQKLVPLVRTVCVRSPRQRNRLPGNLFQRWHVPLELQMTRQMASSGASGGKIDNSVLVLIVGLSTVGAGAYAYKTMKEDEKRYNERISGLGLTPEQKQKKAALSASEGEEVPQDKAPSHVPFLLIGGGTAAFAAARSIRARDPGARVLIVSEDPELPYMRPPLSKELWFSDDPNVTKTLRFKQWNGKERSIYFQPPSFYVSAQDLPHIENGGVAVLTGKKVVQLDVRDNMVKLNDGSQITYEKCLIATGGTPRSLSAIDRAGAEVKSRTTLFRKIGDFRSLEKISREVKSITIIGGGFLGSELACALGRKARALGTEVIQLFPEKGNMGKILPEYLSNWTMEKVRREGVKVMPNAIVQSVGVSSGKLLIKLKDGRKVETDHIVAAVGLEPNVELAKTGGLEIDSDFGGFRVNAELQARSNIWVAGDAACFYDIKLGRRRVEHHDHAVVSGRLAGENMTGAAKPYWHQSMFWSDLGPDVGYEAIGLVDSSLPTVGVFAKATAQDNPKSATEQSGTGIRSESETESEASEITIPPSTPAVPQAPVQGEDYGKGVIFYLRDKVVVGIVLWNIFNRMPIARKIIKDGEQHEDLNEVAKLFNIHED

[9] = molecular target: AIF peptide 39 (Homo sapiens) (UniProt O95831); assay: SPR
AIF peptide 39 (Homo sapiens), sequence (O95831 370-394): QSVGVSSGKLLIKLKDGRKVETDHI

[10] = molecular target: AIF bicyclic peptide 63 (Homo sapiens) (UniProt O95831)
[11] = molecular target: AIF peptide 39 (Homo sapiens) (UniProt O95831)
[12] = molecular target: TRF2 41-residue sequence (Homo sapiens) (UniProt Q15554)
[13] = molecular target: R6IP peptide 64 (Homo sapiens) (UniProt Q6IQ26)

β-catenin, sequence (P35222 2-781): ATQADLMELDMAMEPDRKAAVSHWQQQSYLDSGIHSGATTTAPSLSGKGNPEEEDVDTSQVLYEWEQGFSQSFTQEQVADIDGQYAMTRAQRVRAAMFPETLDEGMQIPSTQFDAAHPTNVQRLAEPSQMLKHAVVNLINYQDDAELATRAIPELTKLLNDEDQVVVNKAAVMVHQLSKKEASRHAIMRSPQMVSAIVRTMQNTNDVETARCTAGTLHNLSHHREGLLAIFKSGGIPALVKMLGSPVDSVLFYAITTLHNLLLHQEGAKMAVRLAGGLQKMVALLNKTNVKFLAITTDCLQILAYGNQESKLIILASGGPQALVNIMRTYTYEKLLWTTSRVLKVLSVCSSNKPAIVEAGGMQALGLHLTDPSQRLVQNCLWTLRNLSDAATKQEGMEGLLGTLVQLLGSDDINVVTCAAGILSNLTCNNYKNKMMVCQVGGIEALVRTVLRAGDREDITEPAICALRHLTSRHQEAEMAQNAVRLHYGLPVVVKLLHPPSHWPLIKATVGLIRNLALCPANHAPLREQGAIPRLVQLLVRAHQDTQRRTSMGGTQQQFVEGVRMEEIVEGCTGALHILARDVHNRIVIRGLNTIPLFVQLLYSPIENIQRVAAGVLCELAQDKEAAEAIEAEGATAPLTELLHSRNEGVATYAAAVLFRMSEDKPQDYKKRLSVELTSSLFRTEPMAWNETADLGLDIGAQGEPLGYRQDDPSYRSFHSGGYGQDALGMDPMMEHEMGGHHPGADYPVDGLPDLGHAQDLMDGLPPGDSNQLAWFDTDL
CypA, sequence (P62937 2-165): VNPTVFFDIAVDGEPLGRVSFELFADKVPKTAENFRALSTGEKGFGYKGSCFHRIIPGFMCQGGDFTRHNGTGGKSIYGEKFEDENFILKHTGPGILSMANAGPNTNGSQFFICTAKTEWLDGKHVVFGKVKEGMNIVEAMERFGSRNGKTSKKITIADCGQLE
RAP1, sequence (Q9NYB0 2-399): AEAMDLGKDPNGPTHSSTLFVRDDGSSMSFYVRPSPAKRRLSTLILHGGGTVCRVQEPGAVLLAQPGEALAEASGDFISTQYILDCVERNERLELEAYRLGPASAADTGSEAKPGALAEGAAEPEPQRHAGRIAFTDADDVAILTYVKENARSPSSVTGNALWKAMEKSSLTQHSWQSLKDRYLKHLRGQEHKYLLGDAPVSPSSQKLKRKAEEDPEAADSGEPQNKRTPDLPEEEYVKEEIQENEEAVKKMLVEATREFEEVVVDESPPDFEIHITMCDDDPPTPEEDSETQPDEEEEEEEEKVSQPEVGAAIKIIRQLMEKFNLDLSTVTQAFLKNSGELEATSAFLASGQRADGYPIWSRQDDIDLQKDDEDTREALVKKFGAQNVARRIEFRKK
RAP1 (Homo sapiens), sequence (Q9NYB0 2-399): as above
CK2β triazole cyclised peptide (Homo sapiens), sequence (P67870 2-215): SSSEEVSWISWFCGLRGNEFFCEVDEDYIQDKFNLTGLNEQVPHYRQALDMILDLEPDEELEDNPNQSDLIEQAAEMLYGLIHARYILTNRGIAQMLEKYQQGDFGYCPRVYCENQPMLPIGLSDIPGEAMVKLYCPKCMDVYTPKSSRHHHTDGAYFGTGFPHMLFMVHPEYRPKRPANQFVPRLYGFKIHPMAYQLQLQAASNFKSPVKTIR
SPSB2, sequence (Q99619 whole entry): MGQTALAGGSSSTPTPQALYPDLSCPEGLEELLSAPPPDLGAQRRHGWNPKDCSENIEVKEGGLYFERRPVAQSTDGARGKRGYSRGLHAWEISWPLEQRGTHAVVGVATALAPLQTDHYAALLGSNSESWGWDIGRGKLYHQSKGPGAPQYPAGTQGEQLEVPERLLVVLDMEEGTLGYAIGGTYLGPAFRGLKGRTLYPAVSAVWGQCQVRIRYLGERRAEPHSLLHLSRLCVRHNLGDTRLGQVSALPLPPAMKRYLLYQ
CK2α, sequence (P68400 whole entry): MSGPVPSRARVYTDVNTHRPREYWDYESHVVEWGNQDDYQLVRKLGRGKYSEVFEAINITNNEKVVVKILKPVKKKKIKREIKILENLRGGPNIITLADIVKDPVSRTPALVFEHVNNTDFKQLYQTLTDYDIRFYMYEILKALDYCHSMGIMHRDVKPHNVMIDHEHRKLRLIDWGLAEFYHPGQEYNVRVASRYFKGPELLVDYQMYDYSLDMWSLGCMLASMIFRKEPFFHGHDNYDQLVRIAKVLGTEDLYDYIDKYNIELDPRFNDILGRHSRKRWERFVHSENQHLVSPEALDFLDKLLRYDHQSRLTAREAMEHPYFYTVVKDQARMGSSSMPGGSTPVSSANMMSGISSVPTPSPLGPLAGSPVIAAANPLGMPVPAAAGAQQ
Keap1, sequence (Q14145 whole entry): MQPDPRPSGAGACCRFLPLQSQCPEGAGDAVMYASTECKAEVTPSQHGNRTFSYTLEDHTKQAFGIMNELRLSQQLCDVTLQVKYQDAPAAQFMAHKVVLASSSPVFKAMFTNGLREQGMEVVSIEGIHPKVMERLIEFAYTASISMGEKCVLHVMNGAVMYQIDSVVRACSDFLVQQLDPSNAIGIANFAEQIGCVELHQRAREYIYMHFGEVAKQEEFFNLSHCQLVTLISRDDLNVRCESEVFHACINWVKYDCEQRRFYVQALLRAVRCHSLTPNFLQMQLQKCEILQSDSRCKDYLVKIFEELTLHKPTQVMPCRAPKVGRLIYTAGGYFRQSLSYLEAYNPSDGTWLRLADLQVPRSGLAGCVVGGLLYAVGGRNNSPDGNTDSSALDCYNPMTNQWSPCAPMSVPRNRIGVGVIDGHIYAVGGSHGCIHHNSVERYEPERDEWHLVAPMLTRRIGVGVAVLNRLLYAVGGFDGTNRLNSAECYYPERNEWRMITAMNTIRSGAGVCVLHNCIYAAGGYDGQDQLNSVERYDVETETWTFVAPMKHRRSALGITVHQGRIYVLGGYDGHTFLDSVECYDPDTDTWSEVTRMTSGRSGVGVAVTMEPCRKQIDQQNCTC
Rab6a, sequence (P20340 2-208): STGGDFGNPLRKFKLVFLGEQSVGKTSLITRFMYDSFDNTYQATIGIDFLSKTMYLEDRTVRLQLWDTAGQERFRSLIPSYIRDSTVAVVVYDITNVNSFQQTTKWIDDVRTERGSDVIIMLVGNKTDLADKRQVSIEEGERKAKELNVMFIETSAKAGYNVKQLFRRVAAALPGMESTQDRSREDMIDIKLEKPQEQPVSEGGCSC

pKd [1]: 6.34
Substance: CK2α (from UniProt P68400)

pKd [2]: 7.78
Substance: TRF2 41-residue peptide (from UniProt Q15554)

pKd [3]: 7.88
Substance: SPSB2 (from UniProt Q99619)

pKi [4]: 5.72
pKi [5]: 6.02
pKd [6]: 6.21
Substance: β-catenin (from UniProt P35222)

pKd [7]: 7.56
Substance: Keap1 (from UniProt Q14145)

pKd [8]: 5.62
pKd [9]: 4.92
pKd [10]: 6.07
pKd [11]: 5.30
Substance: CypA (from UniProt P62937)

pKd [12]: 7.78
Substance: RAP1 (from UniProt Q9NYB0)

pKd [13]: 5.11
Substance: Rab6a (from UniProt P20340)
